Assay results from patent publication US20210315238A1.
Like-named read-outs stand apart in the source and are kept apart here.

Columns and labels:
[1] = tested on: 26-mer peptide
[2] = tested on: 33-mer peptide
[3] = target: wheat gliadin (Sigma, Cat. No. G3375) (wheat); test: cell-based or functional assay
[4] = target: T1, 33-mer peptide
T1 chain: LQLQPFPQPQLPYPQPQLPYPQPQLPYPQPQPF

[5] = target: T2, 26-mer peptide
T2 chain: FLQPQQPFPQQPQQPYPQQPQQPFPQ

## Brewers Clarex
[1]
  Residual 26-mer peptide (mg/mL) after 0.5 ppm protease, 10 min 40 C, HPLC: 0.65 mg/mL
  Residual 26-mer peptide (mg/mL) after 1 ppm protease, 10 min 40 C, HPLC: 0.46 mg/mL
  Residual 26-mer peptide (mg/mL) after 2 ppm protease, 10 min 40 C, HPLC: 0.2 mg/mL
  Residual immunogenicity of 26-mer peptide (%), competitive ELISA after protease treatment: 99.6%
[2]
  Residual 33-mer peptide (mg/mL) after 0.5 ppm protease, 10 min 40 C, HPLC: 0.58 mg/mL
  Residual 33-mer peptide (mg/mL) after 1 ppm protease, 10 min 40 C, HPLC: 0.39 mg/mL
  Residual 33-mer peptide (mg/mL) after 2 ppm protease, 10 min 40 C, HPLC: 0.18 mg/mL
  Residual immunogenicity of 33-mer peptide (%), competitive ELISA after protease treatment: 73.7%

## Brewers Clarex (enzyme)
[3]
  Residual Immunogenicity (%) of wheat gliadin, competitive ELISA after protease treatment: 59.7%

B1: AflPro3 (protein)
chain: LSFLPGIKANNLQLASVLGIDGHTARFNPEKIAETAISRGSGSEVPARRISIPIDHEDPSMGTYQNRYWVSADFYKPGGPVFVLDAGEGNAYSVAQSYLGGSDNFFAEYLKEFNGLGLVWEHRYYGDSLPFPVNTSTPNEHFKYLTNSQALADLPYFAEKFTLNGTDLSPKSSPWIMLGGSYPGMRAAFTRNEYPDTIFASFAMSAPVEAWVNMTIYFEQVYRGMVANGLGGCAKDLKAINDYIDSQLDKKGQAADAIKTLFLGKEGIHNSNGDFTAALGSIYNLFQSYGVDGGEESLSQLCSYLDKEASPNGIARKIGVKELTEKFAAWPPLLYLINQWGSQVGNGDSNCKGQNNSTETVCELGGQFTDPDTISWTWQYCTEWGYLQADNVGPHSLLSKYQSLEYQQSLCYRQFPGAKESGLLPEHPEANETNAETGGWTIRPSNVFWSAGEFDPWRTLTPLSNETFAPKGVQISTNIPKCGVETPENVLFGYVIPRAEHCFDYDLSYKPADKSRKLFSLALKKWLPCWRSEHAPKGVQRKWM
[4]
  Residual 33-mer peptide (mg/mL) after 0.5 ppm protease, 10 min 40 C, HPLC: 0.09 mg/mL
  Residual 33-mer peptide (mg/mL) after 1 ppm protease, 10 min 40 C, HPLC: 0.01 mg/mL
  Residual 33-mer peptide (mg/mL) after 2 ppm protease, 10 min 40 C, HPLC: 0.01 mg/mL
[5]
  Residual 26-mer peptide (mg/mL) after 0.5 ppm protease, 10 min 40 C, HPLC: 0.38 mg/mL
  Residual 26-mer peptide (mg/mL) after 1 ppm protease, 10 min 40 C, HPLC: 0.17 mg/mL
  Residual 26-mer peptide (mg/mL) after 2 ppm protease, 10 min 40 C, HPLC: 0.05 mg/mL
